Measured values reported in patent US20240247080A1, “GLP1/GIP/NPY2 RECEPTOR TRIPLE AGONISTS” (Boehringer Ingelheim International GmbH, priority 2022, published 2024).
Numbering of substitutions follows the chain as printed. Non-standard residues stand in square brackets, D forms with d. No end group written: not given here. Aib = CC(C)(N)C(=O)O

T1: human neuropeptide Y2 receptor (human, UniProt P49146 1-381)
T1 sequence (looked up): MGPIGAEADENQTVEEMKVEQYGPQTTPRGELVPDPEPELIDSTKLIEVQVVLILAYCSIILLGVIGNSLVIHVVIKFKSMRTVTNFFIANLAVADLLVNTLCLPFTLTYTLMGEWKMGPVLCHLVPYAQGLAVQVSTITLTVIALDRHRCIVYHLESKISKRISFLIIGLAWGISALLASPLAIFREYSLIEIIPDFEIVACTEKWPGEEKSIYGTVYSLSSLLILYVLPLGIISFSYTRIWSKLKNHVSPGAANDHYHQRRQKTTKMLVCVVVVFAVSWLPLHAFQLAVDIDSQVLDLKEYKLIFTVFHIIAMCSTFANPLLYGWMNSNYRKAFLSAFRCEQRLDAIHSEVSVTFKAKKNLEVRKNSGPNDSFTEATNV

T2: human GIP receptor (human, UniProt P48546 22-466)
T2 sequence (looked up): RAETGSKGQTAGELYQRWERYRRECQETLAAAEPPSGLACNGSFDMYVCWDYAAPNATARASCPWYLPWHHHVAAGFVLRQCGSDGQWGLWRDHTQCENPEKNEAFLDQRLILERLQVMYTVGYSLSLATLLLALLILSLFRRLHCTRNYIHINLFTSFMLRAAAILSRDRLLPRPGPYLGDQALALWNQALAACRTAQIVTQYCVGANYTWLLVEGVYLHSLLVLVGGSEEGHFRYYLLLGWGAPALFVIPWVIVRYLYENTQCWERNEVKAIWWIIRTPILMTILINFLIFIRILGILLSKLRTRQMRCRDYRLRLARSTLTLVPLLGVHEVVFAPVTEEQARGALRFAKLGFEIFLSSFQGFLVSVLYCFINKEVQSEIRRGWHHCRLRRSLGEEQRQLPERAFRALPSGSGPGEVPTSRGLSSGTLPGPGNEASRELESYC

B1: Compound 114 (peptide)
peptide: YXEGTFTSDYSIXLEKQAQXAFVQWLIKGGPSEGVSLRHYYNWLTRQRY
modifications: Aib at 2, 13, 20; K28 side chain: C20DA-gGlu-gGlu-gGlu-gGlu-gGlu-gGlu-eLys; C-terminal NH2
B2: Compound 129 (peptide)
peptide: B1 peptide with Q24E, E33S, V35A, R38X
modifications: Aib at 2, 13, 20, 38; K28 side chain: C20DA-gGlu-gGlu-gGlu-gGlu-gGlu-gGlu-eLys; C-terminal NH2
B3: Compound 122 (peptide)
peptide: B1 peptide with Q24E, G34P, V35E
modifications: Aib at 2, 13, 20; K28 side chain: C20DA-gGlu-gGlu-gGlu-gGlu-gGlu-gGlu-eLys; C-terminal NH2
B4: Compound 132 (peptide)
peptide: B1 peptide with Q24E, E33S, V35A, L37I
modifications: Aib at 2, 13, 20; K28 side chain: C20DA-gGlu-gGlu-gGlu-gGlu-gGlu-gGlu-eLys; C-terminal NH2
B5: Compound 127 (peptide)
peptide: B1 peptide with Q24E, E33S, V35E
modifications: Aib at 2, 13, 20; K28 side chain: C20DA-gGlu-gGlu-gGlu-gGlu-gGlu-gGlu-eLys; C-terminal NH2
B6: Compound 121 (peptide)
peptide: B1 peptide with K16S, Q24E, E33S, V35A
modifications: Aib at 2, 13, 20; K28 side chain: C20DA-gGlu-gGlu-gGlu-gGlu-gGlu-gGlu-eLys; C-terminal NH2
B7: Compound 117 (peptide)
peptide: B1 peptide with Q24E, E33S, V35A, L37V
modifications: Aib at 2, 13, 20; K28 side chain: C20DA-gGlu-gGlu-gGlu-gGlu-gGlu-gGlu-eLys; C-terminal NH2
B8: Compound 133 (peptide)
peptide: B1 peptide with Q24E, E33S, V35A, Y41X
modifications: Aib at 2, 13, 20; Tle at 41; K28 side chain: C20DA-gGlu-gGlu-gGlu-gGlu-gGlu-gGlu-eLys; C-terminal NH2
B9: Compound 118 (peptide)
peptide: B1 peptide with Q24E, E33S, V35A, L37X
modifications: Aib at 2, 13, 20, 37; K28 side chain: C20DA-gGlu-gGlu-gGlu-gGlu-gGlu-gGlu-eLys; C-terminal NH2
B10: Compound 116 (peptide)
peptide: B1 peptide with K16E, Q24E, E33S, V35A
modifications: Aib at 2, 13, 20; K28 side chain: C20DA-gGlu-gGlu-gGlu-gGlu-gGlu-gGlu-eLys; C-terminal NH2
B11: Compound 130 (peptide)
peptide: B1 peptide with V23I, Q24E, E33S, V35A
modifications: Aib at 2, 13, 20; K28 side chain: C20DA-gGlu-gGlu-gGlu-Glu-gGlu-gGlu-eLys; C-terminal NH2
B12: Compound 119 (peptide)
peptide: B1 peptide with Q24E, E33S, V35A, H39X
modifications: Aib at 2, 13, 20; Tle at 39; K28 side chain: C20DA-gGlu-gGlu-gGlu-gGlu-gGlu-gGlu-eLys; C-terminal NH2
B13: Compound 123 (peptide)
peptide: B1 peptide with Q24E, P31Q, E33S, V35A
modifications: Aib at 2, 13, 20; K28 side chain: C20DA-gGlu-gGlu-gGlu-gGlu-gGlu-gGlu-eLys; C-terminal NH2
B14: Compound 131 (peptide)
peptide: B1 peptide with K16R, Q24E, E33S, V35A
modifications: Aib at 2, 13, 20; K28 side chain: C20DA-gGlu-gGlu-gGlu-gGlu-gGlu-gGlu-eLys; C-terminal NH2
B15: Compound 120 (peptide)
peptide: B1 peptide with Q24E, E33S, G34P, V35A
modifications: Aib at 2, 13, 20; K28 side chain: C20DA-gGlu-gGlu-gGlu-gGlu-gGlu-OEG-OEG; C-terminal NH2
B16: Compound 134 (peptide)
peptide: B1 peptide with Q24E, V35Q, L37I
modifications: Aib at 2, 13, 20; K28 side chain: C20DA-gGlu-gGlu-gGlu-gGlu-gGlu-gGlu-eLys; C-terminal NH2
B17: Compound 128 (peptide)
peptide: B1 peptide with E15D, Q24E, E33S, V35A
modifications: Aib at 2, 13, 20; K28 side chain: C20DA-gGlu-gGlu-gGlu-gGlu-gGlu-gGlu-eLys; C-terminal NH2
B18: Compound 136 (peptide)
peptide: B1 peptide with Q17A, Q24E, E33S, V35A
modifications: Aib at 2, 13, 20; K28 side chain: C20DA-gGlu-gGlu-gGlu-gGlu-gGlu-gGlu-eLys; C-terminal NH2
B19: Compound 135 (peptide)
peptide: B1 peptide with Q24E, W25Y, E33S, V35A
modifications: Aib at 2, 13, 20; K28 side chain: C20DA-gGlu-gGlu-gGlu-gGlu-gGlu-gGlu-eLys; C-terminal NH2
B20: Compound 124 (peptide)
peptide: B1 peptide with K16Q, Q24E, E33S, V35A
modifications: Aib at 2, 13, 20; K28 side chain: C20DA-gGlu-gGlu-gGlu-gGlu-Glu-gGlu-eLys; C-terminal NH2
B21: Compound 137 (peptide)
peptide: B1 peptide with Q24E, E33S, V35A, L44X
modifications: Aib at 2, 13, 20; Tle at 44; K28 side chain: C20DA-gGlu-gGlu-gGlu-gGlu-gGlu-gGlu-eLys; C-terminal NH2
B22: Compound 115 (peptide)
peptide: B1 peptide with V35A
modifications: Aib at 2, 13, 20; NMeQ at 47; K28 side chain: C20DA-gGlu-gGlu-gGlu-gGlu-gGlu-gGlu-eLys; C-terminal NH2
B23: Compound 125 (peptide)
peptide: B1 peptide with V35A
modifications: Aib at 2, 13, 20; NMeR at 48; K28 side chain: C20DA-gGlu-gGlu-gGlu-gGlu-gGlu-gGlu-eLys; C-terminal NH2

Columns and labels:
Assay in all cases: cell-based or functional assay
[1] = molecular target: T1, human neuropeptide Y2 receptor
[2] = molecular target: human GLP-1 receptor (human, UniProt P43220 24-463)
[3] = molecular target: T2, human GIP receptor

Binder | EC50 CreLuc hNPY2R 0.5% hP [1] | EC50 CreLuc hNPY2R 100% hP [1] | EC50 CreLuc hGLP1R 0.5% hP [2] | EC50 CreLuc hGLP1R 100% hP [2] | EC50 CreLuc hGIPR 0.5% hP [3] | EC50 CreLuc hGIPR 100% hP [3]
Y[Aib]EGTFTSDLSI[Aib]LEKQAQ[Aib]AFVQWLIKGGPSEGASLRHYYNWLTRQRY-NH2 (not fully specified (residue 28)) [Compound 113] | 19.5 nM | 49.9 nM | 0.19 nM | 3.72 nM | 0.56 nM | 3.84 nM
B1 | 7.73 nM | 44.8 nM | 0.15 nM | 5.56 nM | 0.27 nM | 2.34 nM
B2 | 30.9 nM | 87.6 nM | 0.04 nM | 0.85 nM | 0.06 nM | 0.5 nM
B3 | 26.3 nM | 78.9 nM | 0.22 nM | 4.97 nM | 0.08 nM | 1.53 nM
B4 | 11.3 nM | 45.4 nM | 0.14 nM | 3.76 nM | 0.22 nM | 2.07 nM
B5 | 13.2 nM | 66.3 nM | 0.04 nM | 1.6 nM | 0.05 nM | 0.84 nM
B6 | 23.8 nM | 88.9 nM | 0.18 nM | 7.09 nM | 0.65 nM | 7.29 nM
B7 | 6.81 nM | 24.6 nM | 0.13 nM | 1.8 nM | 0.14 nM | 1.18 nM
B8 | 14.1 nM | 41.4 nM | 0.16 nM | 3.01 nM | 0.48 nM | 2.28 nM
B9 | 6.2 nM | 26.2 nM | 0.05 nM | 0.84 nM | 0.06 nM | 0.55 nM
B10 | 13.5 nM | 85.7 nM | 0.14 nM | 2.48 nM | 0.43 nM | 3.01 nM
B11 | 18 nM | 54.8 nM | 0.13 nM | 1.18 nM | 0.11 nM | 0.98 nM
B12 | 23.1 nM | 80.1 nM | 0.26 nM | 4.46 nM | 0.63 nM | 4.31 nM
B13 | 6.12 nM | 31.3 nM | 0.24 nM | 7.88 nM | 0.42 nM | 4.11 nM
B14 | 18.2 nM | 71.5 nM | 0.11 nM | 2.84 nM | 0.35 nM | 2.94 nM
B15 | 10.7 nM | 39.2 nM | 0.11 nM | 4.65 nM | 0.34 nM | 1.44 nM
B16 | 10.1 nM | 40 nM | 0.1 nM | 3.94 nM | 0.09 nM | 0.83 nM
B17 | 24.8 nM | 51.9 nM | 0.4 nM | 3.7 nM | 0.11 nM | 0.9 nM
B18 | 15.1 nM | 64.7 nM | 0.32 nM | 4.19 nM | 0.31 nM | 2.03 nM
B19 | 8.4 nM | 21.5 nM | 0.24 nM | 2.3 nM | 0.11 nM | 1.07 nM
B20 | 16.2 nM | 39.9 nM | 0.11 nM | 1.95 nM | 0.26 nM | 0.89 nM
B21 | 60.2 nM | 93 nM | 0.12 nM | 2.22 nM | 0.28 nM | 1.5 nM
B22 | 7.8 nM | 30.6 nM | 0.12 nM | 3.45 nM | 0.51 nM | 1.89 nM
B23 | 30.9 nM | 99.3 nM | 0.23 nM | 2.85 nM | 0.28 nM | 1.72 nM
Y[Aib]EGTFTSDYSI[Aib]LEKQAQ[Aib]AFVEWLIKGGPSSYASLRHYYNWLTRQRY-NH2 (not fully specified (residue 28)) [Compound 126] | 15.1 nM | 41.8 nM | 0.18 nM | 3.36 nM | 0.1 nM | 1.27 nM
